Assay results as given in publication PMC3003327.

What was measured:
[1] = biological target: actin filaments (F-actin) of Acanthamoeba castellani cytoplasmic actin (Acanthamoeba castellani); experiment: single-molecule TIRF microscopy
[2] = biological target: actin filaments (F-actin) of Acanthamoeba castellani cytoplasmic actin (Acanthamoeba castellani); experiment: single-filament TIRF elongation rate against VASP concentration

dwell time at the growing barbed end with 1 µM actin [1]	dwell time τ1 (single exponential fit without the static molecules) [1]	dwell time τ1 on filament regions with p(ADP-Pi) < 0.5 [1]	dwell time τ1 on filament regions with p(ADP-Pi) > 0.5 [1]	dwell time τ1 on the sides of growing filaments [1]	dwell time τ2 (static binding; double exponential fit of all interactions) [1]	Kd [2]	Substance
1.45 s	0.44 s	1 s	0.93 s	0.22 s	4.99 s		Cy3-KCK-hVASP^1-380aa (C7S, C64S, C334A) (from UniProt P50552 1-380) (natural protein)
						9.2 nM	human VASP^1-380aa, unlabeled wild type (untagged hVASP^1-380aa) (from UniProt P50552 1-380) (natural protein)
